Experimental data reported in PMC9399681, “Structural insight into ASH1L PHD finger recognizing methylated histone H3K4 and promoting cell growth in prostate cancer” (Frontiers in Oncology, 2022).
Where a chain is given by its changes, count along the chain named. Primed or numbered codes have the meaning given here. Where no end group is shown, it is not given here. [ ]: non-standard residue; d: D form. Me3″ = trimethylation (trimethyl-lysine); Me2 = dimethylation (dimethyl-lysine); Lys(Me2) = CN(C)CCCC[C@H](N)C(=O)O

B1: histone H3 (1–15) peptide, monomethylated on lysine 4 (peptide, UniProt P68431 2-16, looked up)
peptide: ARTK(Me)QTARKSTGGKA
notes: histone H3, residues 1-15; also called H3K4me1; H3K4me; source: synthetic peptide (MIMOYOPES, Wuxi, China)
B2: histone H3 (1–15) peptide, dimethylated on lysine 4 (peptide)
peptide: ART[Lys(Me2)]QTARKSTGGKA
notes: also called H3K4me2; H3K4me2 peptide (1–15); source: synthetic peptide (MIMOYOPES, Wuxi, China)
B3: histone H3 (1–15) peptide, trimethylated on lysine 4 (peptide, UniProt P68431 2-16, looked up)
peptide: ARTK(Me3″)QTARKSTGGKA
notes: histone H3, residues 1-15; also called H3K4me3; source: synthetic peptide (MIMOYOPES, Wuxi, China)
B4: histone H3 (1–15) peptide, unmethylated on lysine 4 (peptide, UniProt P68431 2-16, looked up)
peptide: ARTKQTARKSTGGKA
notes: histone H3, residues 1-15; also called H3K4; H3K4me0; source: synthetic peptide (MIMOYOPES, Wuxi, China)
B5: histone H3 (2–16) peptide with dimethylation on lysine 9 (peptide, UniProt P68431 3-17, looked up)
peptide: RTKQTARK(Me2)STGGKAP
notes: histone H3, residues 2-16; also called H3K9me2; source: synthetic peptide (MIMOYOPES, Wuxi, China)

Tests used:
[1] = biological target: T1, mASH1L PHD domain (residue 2573–2624) Q2590E (mouse, UniProt Q99MY8 2573-2624, Q2590E); assay: ITC; PHD mutants in the cell; H3 (1–15) peptides at 1.5 mM, 19 injections of 2 μl; 25°C, 1×PBS pH 7.2, 100 μM ZnCl2; one set of sites model; conditions: both partners purified
T1 construct: also called Gln2590 to glutamate; source: E. coli BL21 (DE3), purified (MBPTrap, TEV cleavage, Superdex 75)
T1 sequence (looked up): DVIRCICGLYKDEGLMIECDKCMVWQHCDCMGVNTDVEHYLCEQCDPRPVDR

[2] = biological target: T2, mASH1L PHD domain (residue 2573–2624) D2584E (mouse, UniProt Q99MY8 2573-2624, D2584E); assay: as above; conditions: both partners purified
T2 construct: also called Asp2584 to Glu; source: E. coli BL21 (DE3), purified (MBPTrap, TEV cleavage, Superdex 75)
T2 sequence (looked up): T1 sequence (looked up) with D12E, E18Q

[3] = biological target: mASH1L PHD domain (residue 2573–2624) (mouse) (UniProt Q99MY8); assay: NMR titration; 1H,15N HSQC; 100 μM PHD domain titrated with 25 to 2,000 μM peptide; 1×PBS pH 7.2, 100 μM ZnCl2, 298 K; single-site binding model
[4] = biological target: mASH1L PHD domain (residue 2573–2624) Q2590E (mouse, UniProt Q99MY8 2573-2624, Q2590E); assay: ITC
[5] = biological target: mASH1L PHD domain (residue 2573–2624) M2588A (mouse, UniProt Q99MY8 2573-2624, M2588A); assay: ITC
[6] = biological target: T3, mASH1L PHD domain (residue 2573–2624) (mouse, UniProt Q99MY8 2573-2624); assay: ITC
T3 chain: T1 sequence (looked up) with E18Q

[7] = biological target: mASH1L PHD domain (residue 2573–2624) W2597A (mouse, UniProt Q99MY8 2573-2624, W2597A); assay: ITC
[8] = biological target: mASH1L PHD domain (residue 2573–2624) D2573A (mouse, UniProt Q99MY8 2573-2624, D2573A); assay: ITC
[9] = biological target: mASH1L PHD domain (residue 2573–2624) E2585A (mouse, UniProt Q99MY8 2573-2624, E2585A); assay: ITC
[10] = biological target: mASH1L PHD domain (residue 2573–2624) (mouse) (UniProt Q99MY8); assay: ITC; MicroCal iTC200, 25°C, 1×PBS pH 7.2, 100 μM ZnCl2; 100 µM PHD or tandem Bromo-PHD in the cell, titrated with 3 mM peptide (31 injections of 1.2 μl); one set of sites model
[11] = biological target: T4, His-tagged Bromo-PHD tandem domain (residue 2425–2627) of mASH1L (mouse, UniProt Q99MY8 2425-2627); assay: as above; conditions: both partners purified
T4 construct: ASH1L (mASH1L), bromodomain and PHD finger in tandem, residues 2425-2627; pNIC-Bsa4 vector; no cleavage of the His tag is described; also called tandem Bromo-PHD protein; source: E. coli BL21 (DE3), purified (HiTrap IMAC FF, Superdex 75)

[12] = biological target: mASH1L PHD domain (residue 2573–2624) I2575A (mouse, UniProt Q99MY8 2573-2624, I2575A); assay: ITC
[13] = biological target: T5, mASH1L PHD domain (residue 2573–2624) (mouse, UniProt Q99MY8 2573-2624); assay: ITC; MicroCal iTC200, 25°C, 1×PBS pH 7.2, 100 μM ZnCl2; 100 µM PHD or tandem Bromo-PHD in the cell, titrated with 3 mM peptide (31 injections of 1.2 μl); one set of sites model; conditions: both partners purified
T5 construct: 15N- or 13C-labelled for the NMR experiments; also called ASH1L PHD finger; source: E. coli BL21 (DE3), purified (MBPTrap, TEV cleavage, Superdex 75)

| Binder | binding result [1] | Kd [2] [µM] | Kd [3] [µM] | Kd [4] [µM] | Kd [5] [µM] | Kd [6] [µM] | Kd [7] [µM] | Kd [8] [µM] | Kd [9] [µM] | Kd [10] [µM] | Kd [11] [µM] | Kd [12] [µM] | Kd [13] [µM] |
| --- | --- | --- | --- | --- | --- | --- | --- | --- | --- | --- | --- | --- | --- |
| B1 | binds | ~54 | 181 | 31 | > 200 | 41 | > 200 | 188 | 140 | 75 | ~64 | – | – |
| B2 | binds | ~26 | 238 | 35 | > 200 | – | > 200 | 71 | 174 | 39 | ~29 | > 200 | – |
| B3 | binds | ~38 | 106 | 33 | > 200 | 33 | > 200 | 86 | 49 | 64 | ~48 | 103 | – |
| B4 | – | – | – | – | – | – | – | – | – | > 300 | > 500 | – | – |
| B5 | – | – | – | – | – | – | – | – | – | – | – | – | > 500 |
| APATGGVK(Me2)KPHRYRP [histone H3 (29–43) peptide with dimethylation on lysine 36] | – | – | – | – | – | – | – | – | – | – | – | – | > 500 |
